Assay results from IntAct's records for PubMed 26859459.

B1: Mitogen-activated protein kinase kinase kinase 21 (Homo sapiens), Q5TCX8 (parent)
chain: MALRGAAGATDTPVSSAGGAPGGSASSSSTSSGGSASAGAGLWAALYDYEARGEDELSLRRGQLVEVLSQDAAVSGDEGWWAGQVQRRLGIFPANYVAPCRPAASPAPPPSRPSSPVHVAFERLELKELIGAGGFGQVYRATWQGQEVAVKAARQDPEQDAAAAAESVRREARLFAMLRHPNIIELRGVCLQQPHLCLVLEFARGGALNRALAAANAAPDPRAPGPRRARRIPPHVLVNWAVQIARGMLYLHEEAFVPILHRDLKSSNILLLEKIEHDDICNKTLKITDFGLAREWHRTTKMSTAGTYAWMAPEVIKSSLFSKGSDIWSYGVLLWELLTGEVPYRGIDGLAVAYGVAVNKLTLPIPSTCPEPFAKLMKECWQQDPHIRPSFALILEQLTAIEGAVMTEMPQESFHSMQDDWKLEIQQMFDELRTKEKELRSREEELTRAALQQKSQEELLKRREQQLAEREIDVLERELNILIFQLNQEKPKVKKRKGKFKRSRLKLKDGHRISLPSDFQHKITVQASPNLDKRRSLNSSSSSPPSSPTMMPRLRAIQLTSDESNKTWGRNTVFRQEEFEDVKRNFKKKGCTWGPNSIQMKDRTDCKERIRPLSDGNSPWSTILIKNQKTMPLASLFVDQPGSCEEPKLSPDGLEHRKPKQIKLPSQAYIDLPLGKDAQRENPAEAESWEEAASANAATVSIEMTPTNSLSRSPQRKKTESALYGCTVLLASVALGLDLRELHKAQAAEEPLPKEEKKKREGIFQRASKSRRSASPPTSLPSTCGEASSPPSLPLSSALGILSTPSFSTKCLLQMDSEDPLVDSAPVTCDSEMLTPDFCPTAPGSGREPALMPRLDTDCSVSRNLPSSFLQQTCGNVPYCASSKHRPSHHRRTMSDGNPTPTGATIISATGASALPLCPSPAPHSHLPREVSPKKHSTVHIVPQRRPASLRSRSDLPQAYPQTAVSQLAQTACVVGRPGPHPTQFLAAKERTKSHVPSLLDADVEGQSRDYTVPLCRMRSKTSRPSIYELEKEFLS
partner: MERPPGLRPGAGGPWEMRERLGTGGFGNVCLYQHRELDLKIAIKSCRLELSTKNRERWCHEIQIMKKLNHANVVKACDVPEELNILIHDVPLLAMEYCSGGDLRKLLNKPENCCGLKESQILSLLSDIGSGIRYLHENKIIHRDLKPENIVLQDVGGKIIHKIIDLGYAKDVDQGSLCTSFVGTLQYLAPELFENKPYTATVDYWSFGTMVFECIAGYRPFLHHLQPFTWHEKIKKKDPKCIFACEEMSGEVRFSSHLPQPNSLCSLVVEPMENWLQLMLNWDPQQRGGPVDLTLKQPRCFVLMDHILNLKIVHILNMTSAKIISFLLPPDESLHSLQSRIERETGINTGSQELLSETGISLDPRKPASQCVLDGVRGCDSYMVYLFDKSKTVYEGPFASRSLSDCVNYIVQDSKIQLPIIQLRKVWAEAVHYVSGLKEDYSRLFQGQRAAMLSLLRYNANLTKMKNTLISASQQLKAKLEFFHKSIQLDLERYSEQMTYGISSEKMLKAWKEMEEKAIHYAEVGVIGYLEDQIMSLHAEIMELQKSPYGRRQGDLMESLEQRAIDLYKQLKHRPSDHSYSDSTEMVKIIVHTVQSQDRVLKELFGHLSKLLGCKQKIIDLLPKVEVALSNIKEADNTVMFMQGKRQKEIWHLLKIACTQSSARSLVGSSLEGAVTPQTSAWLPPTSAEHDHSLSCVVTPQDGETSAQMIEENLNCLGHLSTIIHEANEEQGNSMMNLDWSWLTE

Variants of: B1
Conditions: with ikka_human CHUK

effect of a mutation on the interaction | Variant
decreasing interaction strength | K151A
